Laboratory results: patent US20200016266A1

Target: recombinant extracellular domain of human VEGFR2 (rhVEGFR2), expressed in human cells (Sino Biological Inc.) (human) (UniProt P35968)
Assay: FRET fluorescence spectroscopy, 0.5 µM 488-VEGFR2 titrated with 594-Gal1, emission at 518 nm

Sequence of recombinant extracellular domain of human VEGFR2 (rhVEGFR2), expressed in human cells (Sino Biological Inc.) (human) (P35968 20-764 limits assumed): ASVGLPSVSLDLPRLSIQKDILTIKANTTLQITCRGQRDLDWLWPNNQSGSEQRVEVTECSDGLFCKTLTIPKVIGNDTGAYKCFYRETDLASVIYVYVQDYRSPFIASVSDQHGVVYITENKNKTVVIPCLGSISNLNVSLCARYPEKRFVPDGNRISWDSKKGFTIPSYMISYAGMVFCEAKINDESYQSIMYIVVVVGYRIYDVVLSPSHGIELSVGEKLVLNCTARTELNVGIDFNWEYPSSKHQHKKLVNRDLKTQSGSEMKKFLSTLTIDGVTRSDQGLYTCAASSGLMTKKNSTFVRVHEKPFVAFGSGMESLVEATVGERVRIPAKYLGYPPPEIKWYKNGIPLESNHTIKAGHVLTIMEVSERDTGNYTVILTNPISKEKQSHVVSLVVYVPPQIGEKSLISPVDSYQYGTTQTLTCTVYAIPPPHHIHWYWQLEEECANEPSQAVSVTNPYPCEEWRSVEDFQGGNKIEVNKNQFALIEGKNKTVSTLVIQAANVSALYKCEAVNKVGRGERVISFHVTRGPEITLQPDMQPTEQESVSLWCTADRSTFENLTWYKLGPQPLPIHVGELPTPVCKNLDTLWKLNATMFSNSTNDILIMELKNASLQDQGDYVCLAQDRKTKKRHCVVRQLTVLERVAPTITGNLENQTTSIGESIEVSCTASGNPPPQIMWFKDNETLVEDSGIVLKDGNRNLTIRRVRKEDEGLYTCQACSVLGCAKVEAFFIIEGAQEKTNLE

EC50 (read off the curve): 7 µM
Substance: Galectin-1 (human recombinant Gal1) (from UniProt P09382 2-135) (ligand)
